# Laboratory results reported in the supplement of paper PMC10567573.
# B1: TFE3 (parent)
# chain: FPSDHLGDLGDPFHLGLEDILMEE
# Variants of: B1
# Assay: protein stability index of a GFP-peptide fusion (GPS, HEK-293T) (PSI 1-6); higher = more stable
# Settings: c terminus: a fixed tail appended
# 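Also: lentivirally expressed fusions sorted by FACS into six bins by GFP to DsRed ratio, PSI derived from sequencing read proportions per bin multiplied by bin number.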
row,Variant,protein stability index
1,FPSDHLGDLGDPFHLYLEDILMEE [G16Y],2.68
2,FPSDHLGDLGDPFHLELEDILMEE [G16E],3.96
3,FPSDHLGDLGDPFHLNLEDILMEE [G16N],3.34
4,FPSDHLGDLGDPFHLILEDILMEE [G16I],2.31
5,FPSDHLGDLGDPFHLALEDILMEE [G16A],3.58
6,FPSDHLGDLGDPFHLLLEDILMEE [G16L],2.4
7,FPSDHLGDLGDPFHLMLEDILMEE [G16M],3.51
8,FPSDHLGDLGDPFHLRLEDILMEE [G16R],2.7
9,FPSDHLGDLGDPFHLWLEDILMEE [G16W],1.85
10,FPSDHLGDLGDPFHLFLEDILMEE [G16F],2.16
11,FPSDHLGDLGDPFHLKLEDILMEE [G16K],3.3
12,FPSDHLGDLGDPFHLCLEDILMEE [G16C],2.7
13,FPSDHLGDLGDPFHLDLEDILMEE [G16D],3.59
14,FPSDHLGDLGDPFHLTLEDILMEE [G16T],3.1
15,FPSDHLGDLGDPFHLHLEDILMEE [G16H],3.25
16,FPSDHLGDLGDPFHLPLEDILMEE [G16P],3.35
17,FPSDHLGDLGDPFHLVLEDILMEE [G16V],2.67
18,FPSDHLGDLGDPFHLSLEDILMEE [G16S],3.26
19,FPSDHLGDLGDPFHLQLEDILMEE [G16Q],3.6
20,FPSDHLGDLGDPFCLGLEDILMEE [H14C],2.66
21,FPSDHLGDLGDPFFLGLEDILMEE [H14F],3.09
22,FPSDHLGDLGDPFMLGLEDILMEE [H14M],3.74
23,FPSDHLGDLGDPFDLGLEDILMEE [H14D],4.61
24,FPSDHLGDLGDPFQLGLEDILMEE [H14Q],4.09

row,Variant,protein stability index
1,FPSDHLGDLGDPFELGLEDILMEE [H14E],4.36
2,FPSDHLGDLGDPFYLGLEDILMEE [H14Y],3.32
3,FPSDHLGDLGDPFLLGLEDILMEE [H14L],3.38
4,FPSDHLGDLGDPFALGLEDILMEE [H14A],4
5,FPSDHLGDLGDPFILGLEDILMEE [H14I],3.44
6,FPSDHLGDLGDPFRLGLEDILMEE [H14R],3.52
7,FPSDHLGDLGDPFSLGLEDILMEE [H14S],4.25
8,FPSDHLGDLGDPFNLGLEDILMEE [H14N],3.67
9,FPSDHLGDLGDPFWLGLEDILMEE [H14W],2.27
10,FPSDHLGDLGDPFTLGLEDILMEE [H14T],3.64
11,FPSDHLGDLGDPFGLGLEDILMEE [H14G],4.14
12,FPSDHLGDLGDPFKLGLEDILMEE [H14K],3.7
13,FPSDHLGDLGDPFPLGLEDILMEE [H14P],4.66
14,FPSDHLGDLGDPFVLGLEDILMEE [H14V],3.04
15,FPSDHLGDLGDPFHLGAEDILMEE [L17A],3.92
16,FPSDHLGDLGDPFHLGGEDILMEE [L17G],3.7
17,FPSDHLGDLGDPFHLGDEDILMEE [L17D],4.5
18,FPSDHLGDLGDPFHLGHEDILMEE [L17H],4.29
19,FPSDHLGDLGDPFHLGYEDILMEE [L17Y],3.46
20,FPSDHLGDLGDPFHLGEEDILMEE [L17E],4.11
21,FPSDHLGDLGDPFHLGPEDILMEE [L17P],3.67
22,FPSDHLGDLGDPFHLGFEDILMEE [L17F],3.1
23,FPSDHLGDLGDPFHLGTEDILMEE [L17T],3.47
24,FPSDHLGDLGDPFHLGWEDILMEE [L17W],3.19

row,Variant,protein stability index
1,FPSDHLGDLGDPFHLGKEDILMEE [L17K],3.53
2,FPSDHLGDLGDPFHLGNEDILMEE [L17N],4.21
3,FPSDHLGDLGDPFHLGSEDILMEE [L17S],3.86
4,FPSDHLGDLGDPFHLGMEDILMEE [L17M],2.91
5,FPSDHLGDLGDPFHLGQEDILMEE [L17Q],3.55
6,FPSDHLGDLGDPFHLGREDILMEE [L17R],3.55
7,FPSDHLGDLGDPFHLGIEDILMEE [L17I],3.22
8,FPSDHLGDLGDPFHLGVEDILMEE [L17V],3.09
9,FPSDHLGDLGDPFHLGCEDILMEE [L17C],3.5
10,FPSDHLGDLGDPFHKGLEDILMEE [L15K],3.1
11,FPSDHLGDLGDPFHRGLEDILMEE [L15R],3.61
12,FPSDHLGDLGDPFHTGLEDILMEE [L15T],3.85
13,FPSDHLGDLGDPFHNGLEDILMEE [L15N],3.77
14,FPSDHLGDLGDPFHSGLEDILMEE [L15S],3.67
15,FPSDHLGDLGDPFHGGLEDILMEE [L15G],3.63
16,FPSDHLGDLGDPFHWGLEDILMEE [L15W],3.49
17,FPSDHLGDLGDPFHQGLEDILMEE [L15Q],3.87
18,FPSDHLGDLGDPFHAGLEDILMEE [L15A],4.29
19,FPSDHLGDLGDPFHDGLEDILMEE [L15D],4.45
20,FPSDHLGDLGDPFHHGLEDILMEE [L15H],3.93
21,FPSDHLGDLGDPFHCGLEDILMEE [L15C],3.31
22,FPSDHLGDLGDPFHEGLEDILMEE [L15E],4.21
23,FPSDHLGDLGDPFHIGLEDILMEE [L15I],3.05
24,FPSDHLGDLGDPFHYGLEDILMEE [L15Y],3.56

row,Variant,protein stability index
1,FPSDHLGDLGDPFHVGLEDILMEE [L15V],3.24
2,FPSDHLGDLGDPFHPGLEDILMEE [L15P],3.7
3,FPSDHLGDLGDPFHMGLEDILMEE [L15M],3.35
4,FPSDHLGDLGDPFHFGLEDILMEE [L15F],3.36
5,FPSDHLGDLGDPYHLGLEDILMEE [F13Y],2.82
6,FPSDHLGDLGDPFHLGLGDILMEE [E18G],2.86
7,FPSDHLGDLGDPFHLGLVDILMEE [E18V],3.22
8,FPSDHLGDLGDPFHLGLPDILMEE [E18P],3.07
9,FPSDHLGDLGDPFHLGLMDILMEE [E18M],2.62
10,FPSDHLGDLGDPFHLGLLDILMEE [E18L],1.98
11,FPSDHLGDLGDPFHLGLRDILMEE [E18R],2.28
12,FPSDHLGDLGDPFHLGLFDILMEE [E18F],1.91
13,FPSDHLGDLGDPFHLGLDDILMEE [E18D],3.87
14,FPSDHLGDLGDPFHLGLKDILMEE [E18K],2.85
15,FPSDHLGDLGDPFHLGLCDILMEE [E18C],2.18
16,FPSDHLGDLGDPFHLGLNDILMEE [E18N],3.12
17,FPSDHLGDLGDPFHLGLQDILMEE [E18Q],2.89
18,FPSDHLGDLGDPFHLGLTDILMEE [E18T],2.72
19,FPSDHLGDLGDPFHLGLHDILMEE [E18H],2.72
20,FPSDHLGDLGDPFHLGLIDILMEE [E18I],2.01
21,FPSDHLGDLGDPFHLGLSDILMEE [E18S],3.51
22,FPSDHLGDLGDPFHLGLADILMEE [E18A],2.7
